# Measurements: IntAct's records for PubMed 18264113
# B1: Histone-lysine N-methyltransferase EHMT2 (Mus musculus), Q9Z148-1 (parent)
# chain: MRGLPRGRGLMRARGRGRAAPTGGRGRGRGGAHRGRGRPRSLLSLPRAQASWAPQLPAGLTGPPVPCLPSQGEAPAEMGALLLEKEPRGAAERVHSSLGDTPQSEETLPKANPDSLEPAGPSSPASVTVTVGDEGADTPVGAASLIGDEPESLEGDGGRIVLGHATKSFPSSPSKGGACPSRAKMSMTGAGKSPPSVQSLAMRLLSMPGAQGAATAGPEPSPATTAAQEGQPKVHRARKTMSKPSNGQPPIPEKRPPEVQHFRMSDDMHLGKVTSDVAKRRKLNSGSLSEDLGSAGGSGDIILEKGEPRPLEEWETVVGDDFSLYYDAYSVDERVDSDSKSEVEALAEQLSEEEEEEEEEEEEEEEEEEEEEEEEEDEESGNQSDRSGSSGRRKAKKKWRKDSPWVKPSRKRRKREPPRAKEPRGVNGVGSSGPSEYMEVPLGSLELPSEGTLSPNHAGVSNDTSSLETERGFEELPLCSCRMEAPKIDRISERAGHKCMATESVDGELLGCNAAILKRETMRPSSRVALMVLCEAHRARMVKHHCCPGCGYFCTAGTFLECHPDFRVAHRFHKACVSQLNGMVFCPHCGEDASEAQEVTIPRGDGGTPPIGTAAPALPPLAHDAPGRADTSQPSARMRGHGEPRRPPCDPLADTIDSSGPSLTLPNGGCLSAVGLPPGPGREALEKALVIQESERRKKLRFHPRQLYLSVKQGELQKVILMLLDNLDPNFQSDQQSKRTPLHAAAQKGSVEICHVLLQAGANINAVDKQQRTPLMEAVVNNHLEVARYMVQLGGCVYSKEEDGSTCLHHAAKIGNLEMVSLLLSTGQVDVNAQDSGGWTPIIWAAEHKHIDVIRMLLTRGADVTLTDNEENICLHWASFTGSAAIAEVLLNAQCDLHAVNYHGDTPLHIAARESYHDCVLLFLSRGANPELRNKEGDTAWDLTPERSDVWFALQLNRKLRLGVGNRAVRTEKIICRDVARGYENVPIPCVNGVDGEPCPEDYKYISENCETSTMNIDRNITHLQHCTCVDDCSSSNCLCGQLSIRCWYDKDGRLLQEFNKIEPPLIFECNQACSCWRSCKNRVVQSGIKVRLQLYRTAKMGWGVRALQTIPQGTFICEYVGELISDAEADVREDDSYLFDLDNKDGEVYCIDARYYGNISRFINHLCDPNIIPVRVFMLHQDLRFPRIAFFSSRDIRTGEELGFDYGDRFWDIKSKYFTCQCGSEKCKHSAEAIALEQSRLARLDPHPELLPDLSSLPPINT
# Variants of: B1
# Conditions: with gfi1_human GFI1, Q99684
# gfi1_human GFI1, Q99684, sequence (Q99684 whole entry): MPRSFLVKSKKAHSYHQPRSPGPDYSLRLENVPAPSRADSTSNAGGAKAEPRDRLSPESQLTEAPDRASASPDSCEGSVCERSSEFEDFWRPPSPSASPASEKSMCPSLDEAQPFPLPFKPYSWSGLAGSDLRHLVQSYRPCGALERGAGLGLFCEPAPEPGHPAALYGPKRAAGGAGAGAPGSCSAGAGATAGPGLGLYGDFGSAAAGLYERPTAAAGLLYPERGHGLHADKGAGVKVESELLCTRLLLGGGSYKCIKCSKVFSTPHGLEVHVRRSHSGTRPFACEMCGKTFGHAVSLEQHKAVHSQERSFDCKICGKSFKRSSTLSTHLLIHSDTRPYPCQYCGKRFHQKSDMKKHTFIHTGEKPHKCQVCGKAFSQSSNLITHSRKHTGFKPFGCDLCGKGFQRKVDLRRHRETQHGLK
row,effect of a mutation on the interaction,Variant
1,decreasing interaction,W839A
2,decreasing interaction,E847A

# Variants of: B1
# Conditions: with ncoa2_mouse Ncoa2, Q61026
# ncoa2_mouse Ncoa2, Q61026, sequence (Q61026 whole entry): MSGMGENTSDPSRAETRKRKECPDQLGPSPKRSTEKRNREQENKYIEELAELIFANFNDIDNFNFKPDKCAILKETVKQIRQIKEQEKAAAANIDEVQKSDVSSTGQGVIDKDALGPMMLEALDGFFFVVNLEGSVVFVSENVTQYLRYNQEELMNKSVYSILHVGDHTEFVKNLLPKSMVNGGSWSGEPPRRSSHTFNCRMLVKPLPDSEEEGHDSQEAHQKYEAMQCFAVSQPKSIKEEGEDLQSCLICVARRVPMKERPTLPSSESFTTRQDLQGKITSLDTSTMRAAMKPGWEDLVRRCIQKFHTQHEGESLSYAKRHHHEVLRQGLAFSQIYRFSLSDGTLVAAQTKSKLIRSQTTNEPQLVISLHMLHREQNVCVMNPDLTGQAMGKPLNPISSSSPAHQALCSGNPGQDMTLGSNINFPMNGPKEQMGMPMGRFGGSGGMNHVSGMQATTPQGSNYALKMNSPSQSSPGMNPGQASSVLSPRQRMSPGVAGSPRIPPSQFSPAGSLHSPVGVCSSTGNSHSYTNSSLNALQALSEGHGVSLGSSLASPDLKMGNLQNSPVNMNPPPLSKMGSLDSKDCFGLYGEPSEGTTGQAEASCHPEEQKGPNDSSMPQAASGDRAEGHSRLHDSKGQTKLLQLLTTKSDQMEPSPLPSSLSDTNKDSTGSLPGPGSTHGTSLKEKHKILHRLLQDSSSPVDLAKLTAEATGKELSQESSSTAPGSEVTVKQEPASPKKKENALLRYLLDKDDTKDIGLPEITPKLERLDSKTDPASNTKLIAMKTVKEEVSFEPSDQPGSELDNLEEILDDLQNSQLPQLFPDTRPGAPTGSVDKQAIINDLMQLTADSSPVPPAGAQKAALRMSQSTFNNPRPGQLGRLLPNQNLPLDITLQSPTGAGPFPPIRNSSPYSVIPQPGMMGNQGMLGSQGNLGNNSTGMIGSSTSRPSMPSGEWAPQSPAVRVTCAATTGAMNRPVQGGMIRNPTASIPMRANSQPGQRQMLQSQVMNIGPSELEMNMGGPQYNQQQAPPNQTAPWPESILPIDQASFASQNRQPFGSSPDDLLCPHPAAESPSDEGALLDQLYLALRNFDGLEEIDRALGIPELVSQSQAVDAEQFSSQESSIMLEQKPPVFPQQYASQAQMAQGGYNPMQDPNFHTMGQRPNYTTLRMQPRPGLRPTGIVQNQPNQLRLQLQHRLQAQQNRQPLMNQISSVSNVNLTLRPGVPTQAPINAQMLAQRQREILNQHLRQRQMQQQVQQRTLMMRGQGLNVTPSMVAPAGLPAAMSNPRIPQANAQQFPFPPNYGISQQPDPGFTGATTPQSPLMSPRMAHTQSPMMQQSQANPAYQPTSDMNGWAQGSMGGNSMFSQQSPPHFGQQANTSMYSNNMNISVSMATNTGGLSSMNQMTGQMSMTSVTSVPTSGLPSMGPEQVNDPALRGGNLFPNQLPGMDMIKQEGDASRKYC
row,effect of a mutation on the interaction,Variant
1,decreasing interaction,E847A
